From patent US20050272633

Molecular target: T1, IL-2 receptor common gamma chain (cγc), full length (1-369), P31785
T1 chain: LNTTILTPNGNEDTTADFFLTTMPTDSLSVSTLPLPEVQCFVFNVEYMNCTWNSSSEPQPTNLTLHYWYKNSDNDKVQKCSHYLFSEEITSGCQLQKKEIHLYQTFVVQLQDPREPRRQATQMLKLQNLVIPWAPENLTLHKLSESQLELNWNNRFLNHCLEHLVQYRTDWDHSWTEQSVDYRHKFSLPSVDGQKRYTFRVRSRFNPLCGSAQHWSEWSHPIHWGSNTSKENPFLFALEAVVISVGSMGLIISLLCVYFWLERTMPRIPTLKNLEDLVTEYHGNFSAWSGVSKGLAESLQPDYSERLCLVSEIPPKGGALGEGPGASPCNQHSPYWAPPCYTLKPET

B1: myc tagged NIK (pcS3MTNIK) (protein)
chain: MAVMEMACPGAPGSAVGQQKELPKAKEKTPPLGKKQSSVYKLEAVEKSPVFCGKWEILNDVITKGTAKEGSEAGPAAISIIAQAECENSQEFSPTFSERIFIAGSKQYSQSESLDQIPNNVAHATEGKMARVCWKGKRRSKARKKRKKKSSKSLAHAGVALAKPLPRTPEQESCTIPVQEDESPLGAPYVRNTPQFTKPLKEPGLGQLCFKQLGEGLRPALPRSELHKLISPLQCLNHVWKLHHPQDGGPLPLPTHPFPYSRLPHPFPFHPLQPWKPHPLESFLGKLACVDSQKPLPDPHLSKLACVDSPKPLPGPHLEPSCLSRGAHEKFSVEEYLVHALQGSVSSGQAHSLTSLAKTWAARGSRSREPSPKTEDNEGVLLTEKLKPVDYEYREEVHWATHQLRLGRGSFGEVHRMEDKQTGFQCAVKKVRLEVFRAEELMACAGLTSPRIVPLYGAVREGPWVNIFMELLEGGSLGQLVKEQGCLPEDRALYYLGQALEGLEYLHSRRILHGDVKADNVLLSSDGSHAALCDFGHAVCLQPDGLGKSLLTGDYIPGTETHMAPEVVLGRSCDAKVDVWSSCCMMLHMLNGCHPWTQFFRGPLCLKIASEPPPVREIPPSCAPLTAQAIQEGLRKEPIHRVSAAELGGKVNRALQQVGGLKSPWRGEYKEPRHPPPNQANYHQTLHAQPRELSPRAPGPRPAEETTGRAPKLQPPLPPEPPEPNKSPPLTLSKEESGMWEPLPLSSLEPAPARNPSSPERKATVPEQELQQLEIELFLNSLSQPFSLEEQEQILSCLSIDSLSLSDDSEKNPSKASQSSRDTLSSGVHSWSSQAEARSSSWNMVLARGRPTDTPSYFNGVKVQIQSLNGEHLHIREFHRVKVGDIATGISSQIPAAAFSLVTKDGQPVRYDMEVPDSGIDLQCTLAPDGSFAWSWRVKHGQLENRP
in vitro kinase assay of anti NIK immunoprecipitates: NIK self- and IKK1-phosphorylation: A three fold increase in phosphorylation of NIK self- and IKK1-phosphorylation was observed in the presence of cγc
